Drawing on the Immune Epitope Database (IEDB), this text covers IC50 and Kd for 4 sequences.

For test [1], the target named is HLA-A*02:01. In words: IEDB peptide-MHC binding, purified MHC/competitive/radioactivity; ≥ and ≤ were set here for values at or beyond the usual limits of such assays. As to conditions: source organism: Homo sapiens.
The target of test [2] is HLA-B*38:01. In words: IEDB peptide-MHC binding, purified MHC/direct/fluorescence; filed as Kd, often an IC50 or EC50 that approximates it; ≥ and ≤ were set here for values at or beyond the usual limits of such assays. As to conditions: source organism: Brucella suis ATCC 23445.
For test [3], the target named is HLA-B*15:09. The description is as above.
In test [4] the target is HLA-B*18:01. The test is described as above.
For test [5], the target named is HLA-B*48:01. Described as above.
Test [6] has as its target HLA-A*01:01. The test is described as above.
Test [7] addresses HLA-A*26:01. The test is described as above.
Test [8] addresses HLA-B*40:01. The test is described as above. As to conditions: source organism: Brucella abortus.
Test [9] has as its target HLA-B*15:01. The test is described as above.
Test [10] addresses HLA-B*46:01. Described as above. The conditions noted are these: source organism: Brucella abortus.
Test [11] addresses HLA-B*07:02. The test is described as above.
Test [12] deals with HLA-B*08:01. Described as above. As to conditions: source organism: Brucella suis ATCC 23445.
For test [13], the target named is HLA-A*31:01. Described as above.
Test [14] deals with HLA-B*58:01. Described as above.
The target of test [15] is HLA-A*11:01. Described as above.
The target in test [16] is HLA-A*02:01. The test is described as above.
Test [17] concerns the target HLA-B*27:05. Described as above.
For test [18], the target named is HLA-A*03:01. The description is as above.
In test [19] the target is HLA-A*02:06. In words: IEDB peptide-MHC binding, purified MHC/competitive/fluorescence; filed as Kd, often an IC50 or EC50 that approximates it; ≥ and ≤ were set here for values at or beyond the usual limits of such assays. The conditions noted are these: source organism: Brucella melitensis bv. 1 str. Rev.1.
Test [20] has as its target HLA-B*57:01. Described as above. The conditions noted are these: source organism: Brucella melitensis bv. 1 str. Rev.1.
For test [21], the target named is HLA-B*15:17. Described as above.
The target of test [22] is HLA-A*69:01. Described as above. As to conditions: source organism: Brucella melitensis bv. 1 str. Rev.1.
The target of test [23] is HLA-B*57:01. In words: IEDB peptide-MHC binding, purified MHC/direct/fluorescence; filed as Kd, often an IC50 or EC50 that approximates it; ≥ and ≤ were set here for values at or beyond the usual limits of such assays. As to conditions: source organism: Rickettsia prowazekii.
Test [24] concerns the target HLA-B*08:03. Described as above. As to conditions: source organism: Rickettsia typhi str. Wilmington.
Test [25] has as its target HLA-A*68:02. The description is as above. The conditions noted are these: source organism: Rickettsia prowazekii.
The target in test [26] is HLA-B*08:02. The test is described as above. As to conditions: source organism: Rickettsia typhi str. Wilmington.
The target of test [27] is HLA-A*69:01. Described as above. The conditions noted are these: source organism: Rickettsia prowazekii.
In test [28] the target is HLA-C*15:02. The test is described as above. As to conditions: source organism: Rickettsia prowazekii str. Madrid E.
Test [29] has as its target HLA-B*73:01. The description is as above. The conditions noted are these: source organism: Rickettsia prowazekii.
Test [30] concerns the target HLA-C*06:02. The test is described as above. As to conditions: source organism: Rickettsia prowazekii str. Madrid E.
Test [31] addresses HLA-B*08:01. In words: IEDB peptide-MHC binding, purified MHC/competitive/fluorescence; filed as Kd, often an IC50 or EC50 that approximates it; ≥ and ≤ were set here for values at or beyond the usual limits of such assays. As to conditions: source organism: Rickettsia prowazekii str. Madrid E.
Test [32] concerns the target HLA-A*30:01. Described as above. As to conditions: source organism: Rickettsia prowazekii str. Madrid E.
For test [33], the target named is HLA-B*45:06. Described as above. As to conditions: source organism: Escherichia coli F11.
For test [34], the target named is HLA-A*32:15. Described as above. The conditions noted are these: source organism: Escherichia coli F11.
The target of test [35] is HLA-A*68:23. Described as above. As to conditions: source organism: Escherichia coli F11.
Test [36] has as its target HLA-A*31:01. The test is described as above. The conditions noted are these: source organism: Escherichia coli F11.
Test [37] has as its target HLA-B*15:42. The description is as above. As to conditions: source organism: Escherichia coli F11.
The target in test [38] is HLA-A*03:01. Described as above. As to conditions: source organism: Escherichia coli F11.
In test [39] the target is HLA-B*83:01. The description is as above. The conditions noted are these: source organism: Escherichia coli F11.
The mark [40] stands for this setting: source organism: Brucella suis ATCC 23445.
Setting [41] is: source organism: Brucella abortus.
Setting [42] is: source organism: Rickettsia typhi str. Wilmington.
Where [43] appears, read: source organism: Rickettsia prowazekii.

What is called IC50 is the point on the concentration scale where inhibition reaches its midpoint. With ILTVILGVL, in test [1], the IC50 came to 0.381 µM.
In general, Kd refers to the constant that tells how readily two partners part at equilibrium. A low value points to a tighter complex. With FSDVSHWWQ, the equilibrium dissociation constant (Kd) in test [2] is ≥ 20 µM; in [3] (setting [40]), ≥ 20 µM; in [4] (setting [41]), ≥ 20 µM; in test [5] (setting [41]), ≥ 20 µM; in test [6] (setting [41]), 0.404 µM; in [7] (setting [40]) it was ≥ 20 µM. For the same sequence, the Kd in test [8], in test [9] (setting [41]), in test [10], in test [11] (setting [41]), in [12] and in test [13] (setting [41]) was ≥ 20 µM each time. For the same sequence, the dissociation constant Kd in test [14] (setting [41]) was 2.09 µM; in test [15] (setting [41]), ≥ 20 µM; in test [16] (setting [41]), ≥ 20 µM; in [17] (setting [41]), ≥ 20 µM; in [18] (setting [41]), ≥ 20 µM; in [19], ≥ 20 µM. The dissociation constant (Kd) in test [20], in test [21] (source organism: Brucella melitensis bv. 1 str. Rev.1) and in test [22] was ≥ 20 µM each time.
With RRNRKALWL, the Kd in test [23], in [3] (setting [42]), in test [4] (setting [43]), in [5] (setting [43]), in test [6] (setting [43]) and in test [24] was ≥ 20 µM each time. In addition, the dissociation constant Kd in [7] (setting [42]) is ≥ 20 µM; in test [25], ≥ 20 µM; in test [9] (setting [43]), ≥ 20 µM; in [26] it was ≥ 20 µM; in test [11] (setting [43]) it was 6.89 µM; in test [13] (setting [43]), ≥ 20 µM. Also, the Kd in test [14] (setting [43]) was ≥ 20 µM; in [15] (setting [43]), ≥ 20 µM; in test [16] (setting [43]), ≥ 20 µM; in test [27], ≥ 20 µM; in test [28], ≥ 20 µM; in test [29], 3.37 µM. The dissociation constant Kd is 0.0465 µM in test [17] (setting [43]); ≥ 20 µM in test [18] (setting [43]); 0.031 µM in [30]; 3 µM in test [31]; ≥ 20 µM in test [21] (source organism: Rickettsia prowazekii str. Madrid E); ≥ 20 µM in [32].
As to MTYSHHACR, the Kd in test [33] was ≥ 5 µM; in test [34], 0.824 µM; in test [35], 0.0002 µM; in [36], 0.0183 µM; in test [37], ≥ 5 µM; in test [38], 0.078 µM. The equilibrium dissociation constant (Kd) in [39] is ≥ 5 µM.
